Assay results taken from publication PMC4520738.

Target: hDNMT1 351-1600 R582E (Homo sapiens, UniProt P26358 351-1600, R582E)
Test: EMSA

Chain of hDNMT1 351-1600 R582E (P26358 351-1600 R582E): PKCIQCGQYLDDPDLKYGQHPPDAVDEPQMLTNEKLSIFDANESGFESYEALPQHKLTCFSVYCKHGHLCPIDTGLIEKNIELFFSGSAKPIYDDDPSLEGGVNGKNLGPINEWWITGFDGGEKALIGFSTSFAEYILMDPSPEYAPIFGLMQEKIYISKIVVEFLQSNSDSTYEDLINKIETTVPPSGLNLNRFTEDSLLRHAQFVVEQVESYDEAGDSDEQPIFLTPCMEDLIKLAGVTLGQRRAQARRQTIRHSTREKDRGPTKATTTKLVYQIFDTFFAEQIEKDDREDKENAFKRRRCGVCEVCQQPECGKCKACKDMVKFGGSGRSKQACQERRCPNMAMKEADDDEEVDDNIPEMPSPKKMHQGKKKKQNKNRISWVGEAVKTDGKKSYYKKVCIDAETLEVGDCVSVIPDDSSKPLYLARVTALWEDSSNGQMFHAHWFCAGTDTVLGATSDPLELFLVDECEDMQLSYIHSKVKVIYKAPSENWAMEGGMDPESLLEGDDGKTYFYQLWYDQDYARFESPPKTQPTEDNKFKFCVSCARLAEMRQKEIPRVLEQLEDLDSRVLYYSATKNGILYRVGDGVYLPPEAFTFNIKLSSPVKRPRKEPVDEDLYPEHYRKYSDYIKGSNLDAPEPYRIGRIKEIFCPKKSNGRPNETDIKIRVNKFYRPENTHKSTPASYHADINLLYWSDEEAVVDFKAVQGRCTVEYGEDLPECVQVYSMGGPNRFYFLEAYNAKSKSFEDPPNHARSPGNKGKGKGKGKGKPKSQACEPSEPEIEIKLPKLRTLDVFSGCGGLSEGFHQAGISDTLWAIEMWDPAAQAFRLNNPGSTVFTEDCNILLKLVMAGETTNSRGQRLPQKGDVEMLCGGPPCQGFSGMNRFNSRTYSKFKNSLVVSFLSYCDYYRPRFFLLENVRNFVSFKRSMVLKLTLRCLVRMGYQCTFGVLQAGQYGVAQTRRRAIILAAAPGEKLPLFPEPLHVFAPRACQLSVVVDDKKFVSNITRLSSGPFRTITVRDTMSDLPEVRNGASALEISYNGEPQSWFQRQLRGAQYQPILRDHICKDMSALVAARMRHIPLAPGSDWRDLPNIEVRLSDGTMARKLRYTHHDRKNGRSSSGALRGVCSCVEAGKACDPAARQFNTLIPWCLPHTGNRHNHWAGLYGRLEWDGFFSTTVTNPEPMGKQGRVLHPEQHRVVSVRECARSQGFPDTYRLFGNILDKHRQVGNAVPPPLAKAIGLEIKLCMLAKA

B1: 26-mer hemimethylated CpG DNA (dsDNA)
DNA 1: ACACCAAGCCTGCGGAGGCTCACGGA
DNA 2: TCCGTGAGCCTCCGCAGGCTTGGTGT
modifications: 5-methyl-2'-deoxycytidine at position 13 of strand 1 (upper)
  binding result: binds
